Source: publication PMC1277818, “Substrate specificity analysis of protein kinase complex Dbf2-Mob1 by peptide library and proteome array screening” (BMC Biochemistry, 2005)

T1: FHHDbf2-H6Mob1TM9 (Saccharomyces cerevisiae, UniProt P22204+P40484)
T1 construct: made in house; host or cells: Hi5 insect cells (baculovirus)
T1 sequence (P22204 1-572): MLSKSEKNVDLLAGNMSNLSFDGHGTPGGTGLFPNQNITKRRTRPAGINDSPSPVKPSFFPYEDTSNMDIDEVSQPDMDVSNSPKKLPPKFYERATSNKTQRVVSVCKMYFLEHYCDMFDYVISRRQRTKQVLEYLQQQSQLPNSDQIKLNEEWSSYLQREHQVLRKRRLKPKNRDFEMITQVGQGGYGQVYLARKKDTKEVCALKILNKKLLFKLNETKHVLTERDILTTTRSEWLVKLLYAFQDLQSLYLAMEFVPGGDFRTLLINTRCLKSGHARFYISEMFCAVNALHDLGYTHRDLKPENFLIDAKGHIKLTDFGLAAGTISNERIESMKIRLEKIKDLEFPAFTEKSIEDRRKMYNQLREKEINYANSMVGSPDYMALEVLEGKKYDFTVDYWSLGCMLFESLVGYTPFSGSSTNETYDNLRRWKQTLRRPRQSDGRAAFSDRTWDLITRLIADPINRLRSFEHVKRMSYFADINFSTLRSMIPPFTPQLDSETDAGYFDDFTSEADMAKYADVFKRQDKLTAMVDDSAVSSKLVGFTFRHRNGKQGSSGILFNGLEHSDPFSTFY
T1 sequence (P40484 1-314 partner): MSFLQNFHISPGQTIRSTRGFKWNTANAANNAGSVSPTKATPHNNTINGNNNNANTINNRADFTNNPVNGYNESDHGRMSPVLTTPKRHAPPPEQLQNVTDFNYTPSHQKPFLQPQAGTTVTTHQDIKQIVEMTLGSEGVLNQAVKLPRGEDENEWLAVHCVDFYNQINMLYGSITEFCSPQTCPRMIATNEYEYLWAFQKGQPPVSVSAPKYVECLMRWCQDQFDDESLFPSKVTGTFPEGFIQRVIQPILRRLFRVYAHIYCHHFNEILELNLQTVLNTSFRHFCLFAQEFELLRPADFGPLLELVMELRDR


Target: T1, FHHDbf2-H6Mob1TM9
Test: Yeast proteome chip assay
Assay type: biochemical
Conditions: Table 3; GST fusion proteins on proteome chip, [γ-33P]ATP, chips in duplicate, computer analysis
Method: The relatively low sequence complexity of the Dbf2 phosphorylation motif diminished the power of using genome-wide bioinformatics screens to identify putative substrates. Accordingly, we carried out a proteome array screen to identify putative yeast substrates. […] After taking into account the proteins phosphorylated in the negative controls, 67 proteins were determined to be putative Dbf2-Mob1 substrates (Table 3).
Yeast proteome microarrays were prepared as previously described. Overexpressed GST-tagged yeast proteins were purified from ~4,400 yeast strains and spotted on slides. To determine the optimal amount of kinase to use for probing proteome chips, we performed trial assays as described (J. Ptacek et al., submitted). […] The full proteome array was probed with 4 μl ^FHHDbf2-^H6Mob1^TM9 in 200 μl of DKB supplemented with [γ-^33P]ATP. As a control, ^FHHDbf2(N305A)-^H6Mob1^TM9 was used to probe the proteome array. […] To control for autophosphorylated proteins, the proteome array was probed with 200 μl of DKB supplemented with [γ-^33P]ATP. Proteome chips were assayed in duplicate in each case. Data analysis was performed as described (J. Ptacek et al., submitted). Briefly, signals were analyzed by a computer algorithm designed to normalize background and identify signals as positive if 3 of 4 spots (each protein is spotted twice on each slide and each kinase or control was tested on 2 slides) were 2 standard deviations above background and the fourth spot was 1.5 standard deviations above background.

| Molecule | Slide Signal (after normalization) |
| --- | --- |
| YBL106C: GST fusion yeast protein on proteome chip (protein, UniProt P38163 1-1010, looked up, GST tag, GST fusion yeast protein on proteome chip) Lethal(2) giant larvae …: MFKKSRHLKNVSNAIKSARVHDVSNGINSKFFDTKKICTYGINGRITVTTFDYTQSLLAVATTAGEIHVYGQKQIEVVFTLKNRPQIKHMRFIKGIYLIAVDEKSNIIVLSVHSKQILTTVFCPNSITCIETDPSLDWMLIGLESGSILIYDVDRNQMSKLKIENFQKSVFLPKERLSPVISIQWNPRDIGTILISYEHITVIYSFIDYKVKQHFFYQLEPYAPGGDLSTNIEKKRTPKVIQSLYHPNSLHILTVHEDNSLVFWDVNSGKLIHARSIFETHVNFPNPALKDCSFTETPAIFKVSWLCQRNPEYTSLLIATKATENPCLPQEITMIDLGGTPMYSVTSFDAMSKYYAKPVQQKLFSLIGKAPLINFLPLPKASPYFGGCHDTNLILLLLEDGELETLIYPAGSFSSKASIFPRSLAWVRPTVTTCIAQSVQKNLWLGMMTIAQSESFLKGGIPATRNIRRHETRSALLTGHSNGSVRIWDASHSEVTDNAVFEVNTAKVLNRATNLAIKNISFASETLELAVSSEVGDVILFKFETNKFYGQLPKSDALQLKFSRFSLDDSKTILVDVSDRGPTNVKQGFIPSTVIHAKKGAVSAIMNSNIGFVAVGFIEGTLIILDRRGPAIIFNENIRVISKAGSSYVSTVHFCVMEYGDDGFSSILMLCGTDIGELMTFKILPATNGRFEVKFTDATKTNNQGKILGINSFAKDTGYSCSATISKMQGLSKGIAIPGFVTISGANDIRLVSPGKSKDTHALFKYPIATSGLSFIPIIDGKGERKLSTIMIVLLINGDIKVLTVPELKEVKNLRCPVPLSAQYVENSSILENGDIVIRTGKFQASLISVLNESATGTNHTADISQHTPIDTLYNPDLKIGYRPQVNSLQWARGTIYCTPYQLDELLGGIERPESKYEESAIARGCISSSSSNAARKLPPGTEDHRYARPVRSSGRSNGYGVLKSVSRAIETRLDTVETTINDYATTMGQTMNDAMEETGRDMMKSAVGF | 0.5988 |
| YNL125C: GST fusion yeast protein on proteome chip (protein, UniProt P53918 1-673, looked up, GST fusion, GST fusion yeast protein on proteome chip) Uncharacterized transporter …: MSTHSNDYFSASSGMVSETSSEVSSINSSQPVSFSKASIAAPVPCSDLHSTKSNDASRKLSISRTLTNRLNDIKKAVDDDNLQTEENSADVNKILESRFDVADAIRLQHNESVQSKLNIPVTHTTTAGASLSAPSSSAFSASSIQNDTTEHKASMDSKLMRNRLYPASTKHSGKDLEAQGITEFEPDEPTVKKVFTNKSTGQLELPPDGGYGWVVTFCVFLTMFSTWGCNASFGVDLAYYLNHDTYPGASKYDYALIAGLTVFLGQLLSPLVMALMRIIGLRTTMLFGDAVMLAAYLLASFTTKLWQLYVTQGFMVGCSISLIFVPATTVLPGWFLKKRAVAMGVSLLGTGAGGVVYGLATNKMLSDFGNTRWCLRIIGISCSISVLVAIALLKERNPTPAIGLKSPRAMFEQLKAMFSLKVITKPFVVLIALWFMFALFAYNMMVFTLSSYAISKGLSSHDASTLTAILNGSQSIGRPLMGLAGDKFGRANVTIVLTTLLTIYMFAFWIPAHTFVQLIFFSILVGSCVGVANVMNTVLIADMVKPEEFLPAWAFVNYCGAPFLLVCEVIAQALTVEKDKSNPYLHAQIFCGCCFIAALILISILREYSIRMKLTERQAMTNEKLKEWKASEYDTDSADEDWGKLKERKTKYDLLLGPGIKKYFLRMVYPMKV | 0.5694 |
| YPL211W: GST fusion yeast protein on proteome chip (protein, UniProt Q08962 1-181, looked up, GST tag, GST fusion yeast protein on proteome chip) 60S ribosome subunit …: MRQLTEEETKVVFEKLAGYIGRNISFLVDNKELPHVFRLQKDRVYYVPDHVAKLATSVARPNLMSLGICLGKFTKTGKFRLHITSLTVLAKHAKYKIWIKPNGEMPFLYGNHVLKAHVGKMSDDIPEHAGVIVFAMNDVPLGFGVSAKSTSESRNMQPTGIVAFRQADIGEYLRDEDTLFT | 0.4521 |
| YIL010W: GST fusion yeast protein on proteome chip (protein, UniProt P40553 1-215, looked up, GST tag, GST fusion yeast protein on proteome chip) Peroxiredoxin DOT5: MGEALRRSTRIAISKRMLEEEESKLAPISTPEVPKKKIKTGPKHNANQAVVQEANRSSDVNELEIGDPIPDLSLLNEDNDSISLKKITENNRVVVFFVYPRASTPGCTRQACGFRDNYQELKKYAAVFGLSADSVTSQKKFQSKQNLPYHLLSDPKREFIGLLGAKKTPLSGSIRSHFIFVDGKLKFKRVKISPEVSVNDAKKEVLEVAEKFKEE | 0.2606 |
| YKL146W: GST fusion yeast protein on proteome chip (protein, UniProt P36062 1-692, looked up, GST tag, GST fusion yeast protein on proteome chip) Vacuolar amino acid …: MNGKEVSSGSGRTQSNNNKKNNNGGSTGISHASGSPLTDGNGGNSNGNSRSRSRSRKSSGTTGGLLKKPPLLVNNEAVHASVPDASHTSCNNGTLEVSINNPEPHVVDAVARHLIRNPSNSLQLQGGDITRDLYKWTNDHPSSPSQYQYPSQPALSTSIPSQAPSFSNRKRSMSFSAASIASSSHLNNNSEANGNPLAAIGLAPAPMTHEEIRAPGGFRRSFIIQKRRKHNVDAPIPNFFTRNFIEFLTLYGHFAGEDLSEEEEEEEETEEEPEEEALETESTQLVSREHGRHPHKSSTVKAVLLLLKSFVGTGVLFLPKAFHNGGWGFSALCLLSCALISYGCFVSLITTKDKVGVDGYGDMGRILYGPKMKFAILSSIALSQIGFSAAYTVFTATNLQVFSENFFHLKPGSISLATYIFAQVLIFVPLSLTRNIAKLSGTALIADLFILLGLVYVYVYSIYYIAVNGVASDTMLMFNKADWSLFIGTAIFTFEGIGLLIPIQESMKHPKHFRPSLSAVMCIVAVIFISCGLLCYAAFGSDVKTVVLLNFPQDTSYTLTVQLLYALAILLSTPLQLFPAIRILENWTFPSNASGKYNPKVKWLKNYFRCAIVVLTSILAWVGANDLDKFVSLVGSFACIPLIYIYPPLLHYKASILSGTSRARLLLDLIVIVFGVAVMAYTSWQTIKMWSQ | 0.3592 |
| YDR299W: GST fusion yeast protein on proteome chip (protein, UniProt Q06631 1-534, looked up, GST tag, GST fusion yeast protein on proteome chip) Protein BFR2: MEKSLADQISDIAIKPVNKDFDIEDEENASLFQHNEKNGESDLSDYGNSNTEETKKAHYLEVEKSKLRAEKGLELNDPKYTGVKGSRQALYEEVSENEDEEEEEEEEEEKEEDALSFRTDSEDEEVEIDEEESDADGGETEEAQQKRHALSKLIQQETKQAINKLSQSVQRDASKGYSILQQTKLFDNIIDLRIKLQKAVIAANKLPLTTESWEEAKMDDSEETKRLLKENEKLFNNLFNRLINFRIKFQLGDHITQNEEVAKHKLSKKRSLKELYQETNSLDSELKEYRTAVLNKWSTKVSSASGNAALSSNKFKAINLPADVQVENQLSDMSRLMKRTKLNRRNITPLYFQKDCANGRLPELISPVVKDSVDDNENSDDGLDIPKNYDPRRKDNNAIDITENPYVFDDEDFYRVLLNDLIDKKISNAHNSESAAITITSTNARSNNKLKKNIDTKASKGRKLNYSVQDPIANYEAPITSGYKWSDDQIDEFFAGLLGQRVNFNENEDEEQHARIENDEELEAVKNDDIQIFG | 0.47 |
| YOL104C: GST fusion yeast protein on proteome chip (protein, UniProt Q12366 1-352, looked up, GST tag, GST fusion yeast protein on proteome chip) Non-disjunction protein 1: MSKDNRLASILLQPVASSSGNCTEFHDSKLHTLQEELNFLPLEGVASNVCPPMFRGHKNYVFVLYCLNQVDLVTNLQDSTKRYYPLQIFKDCQLSSLVQKDFSHYFQLSRQKEGEDRNDSDTTLVNVVNSGVSRHRSQLLKMCIIPRICSFDKSNSKTYKLIQEYVNRFETVLTKFGPEKDFTKVYANWSKLIESFNELILHDLLVKWQQWSELTQPNATVHQNIPNVLRELVIKLTQRYFTFQPSYSCSIDEFTTILLNKNALSLLDVFRKPRKYKLNFGLWLDCQNGILIFTNGIVQMADEITSERVKSFVRPAHLLVLEDHSNDEAVKKLMFFTFSAILQCFTDEILNC | 0.3611 |
